In publication PMC10372695 (Proceedings of the National Academy of Sciences of the …, 2023):
Where “and” joins values, the source holds several entries; their conditions need not be identical. Equal values may be shown once. Read-outs that look alike come from different tables or passages of the source.

Key:
[1] = molecular target: the molecule itself; test: single-molecule fluorescence microscopy with optical tweezers
[2] = molecular target: the molecule itself; test: as above; remark: listed apart in the source

B1: C-terminal GFP-tagged SV40 LT (natural protein)
chain: MDKVLNREESLQLMDLLGLERSAWGNIPLMRKAYLKKCKEFHPDKGGDEEKMKKMNTLYKKMEDGVKYAHQPDFGGFWDATEIPTYGTDEWEQWWNAFNEENLFCSEEMPSSDDEATADSQHSTPPKKKRKVEDPKDFPSELLSFLSHAVFSNRTLACFAIYTTKEKAALLYKKIMEKYSVTFISRHNSYNHNILFFLTPHRHRVSAINNYAQKLCTFSFLICKGVNKEYLMYSALTRDPFSVIEESLPGGLKEHDFNPEEAEETKQVSWKLVTEYAMETKCDDVLLLLGMYLEFQYSFEMCLKCIKKEQPSHYKYHEKHYANAAIFADSKNQKTICQQAVDTVLAKKRVDSLQLTREQMLTNRFNDLLDRMDIMFGSTGSADIEEWMAGVAWLHCLLPKMDSVVYDFLKCMVYNIPKKRYWLFKGPIDSGKTTLAAALLELCGGKALNVNLPLDRLNFELGVAIDQFLVVFEDVKGTGGESRDLPSGQGINNLDNLRDYLDGSVKVNLEKKHLNKRTQIFPPGIVTMNEYSVPKTLQARFVKQIDFRPKDYLKHCLERSEFLLEKRIIQSGIALLLMLIWYRPVAEFAQSIQSRIVEWKERLDKEFSLSVYQKMKFNVAMGIGVLDWLRNSDDDDEDSQENADKNEDGGEKNMEDSGHETGIDSQSQGSFQAPQSSQSVHDHNQPYHICRGFTCFKKPPTPPPEPET
stoichiometry N [1]: 6 and 12
stoichiometry N [2]: 3 and 4 and 5
